Experiments:
[1] = target: T1, Human FAP expressed on the cell surface (WI38, CHO-FAP1.9, U87MG cells) (human, UniProt Q12884 1-760); experiment: FACS on U87MG cells (FAP on the cell surface), His-tag detected with Penta-His AF647 conjugate, median fluorescence intensity
T1 construct: whole, on cells; Endogenous on WI38 and U87MG cells; from a human FAP cDNA (OriGene) in CHO-FAP1.9 cells; also called hFAP; FAP+ cells
T1 sequence (looked up): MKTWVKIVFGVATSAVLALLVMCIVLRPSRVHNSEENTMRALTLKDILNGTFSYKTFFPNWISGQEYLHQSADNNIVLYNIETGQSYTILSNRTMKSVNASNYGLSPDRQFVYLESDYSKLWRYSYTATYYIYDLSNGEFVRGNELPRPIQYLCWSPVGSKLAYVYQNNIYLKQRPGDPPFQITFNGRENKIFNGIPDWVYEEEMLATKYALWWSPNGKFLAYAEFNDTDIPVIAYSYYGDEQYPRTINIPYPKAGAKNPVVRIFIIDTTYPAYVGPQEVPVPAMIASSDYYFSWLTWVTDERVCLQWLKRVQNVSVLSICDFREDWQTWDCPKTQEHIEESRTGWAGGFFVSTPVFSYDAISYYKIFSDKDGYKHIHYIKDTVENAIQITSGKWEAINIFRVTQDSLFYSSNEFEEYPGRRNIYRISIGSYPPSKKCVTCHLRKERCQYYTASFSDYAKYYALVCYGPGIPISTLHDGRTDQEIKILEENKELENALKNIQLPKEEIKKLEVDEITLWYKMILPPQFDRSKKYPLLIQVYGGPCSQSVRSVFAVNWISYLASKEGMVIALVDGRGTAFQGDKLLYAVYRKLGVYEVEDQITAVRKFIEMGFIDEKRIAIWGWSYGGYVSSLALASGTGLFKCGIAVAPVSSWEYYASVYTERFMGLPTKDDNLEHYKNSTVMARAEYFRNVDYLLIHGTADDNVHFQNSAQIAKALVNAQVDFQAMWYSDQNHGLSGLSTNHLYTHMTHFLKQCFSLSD
Protocol: (§1) In order to determine whether the fusion of a biologically active molecule to a FAP-specific ankyrin repeat domain affects the ability of the molecule to specifically recognize and bind to FAP expressed on the surface of cells, the binding of selected ankyrin repeat fusion proteins to FAP-expressing cells was tested. U87 MG cells and WI38 cells are known to express FAP on the cell surface and they were chosen as representative cells for these experiments. FAP expression on the U87 MG and WI38 cells was confirmed by FACS analysis (data not shown).
(§2) Using multi-well plates, 40,000 cells (either U87MG or WI38) were added per well in 50 μl of PBS. 50 μl of appropriate dilutions (2× dilution steps) of ankyrin repeat fusion protein (DARPin® protein #40 or DARPin® protein #41) was then added to the cells and incubated for 30 minutes on ice. After the ankyrin repeat fusion protein-binding reaction, cells were washed twice with PBS. Direct immunofluorescent detection of the His-tagged ankyrin repeat fusion proteins using Penta-His AF647 conjugate (QIAgen) and determination of live cells using LIVE/DEAD™ Fixable Green Dead Cell Stain Kit (ThermoFisher) were then performed together in one step. […] Acquisition and FACS analysis, including the determination of median fluorescence intensity (MFI), were done within 5 days after staining using an AttuneNxT instrument. […]

[2] = target: T1, Human FAP expressed on the cell surface …; experiment: FACS on WI38 cells (FAP on the cell surface), His-tag detected with Penta-His AF647 conjugate, median fluorescence intensity
Protocol: as §1, §2

B1: DARPin® protein #41 (designed binder)
chain: MRGSHHHHHHGSDLGKKLLEAARAGQDDEVRELLKAGADVNAKDYFSHTPLHLAARNGHLKIVEVLLKAGADVNAKDFAGKTPLHLAANEGHLEIVEVLLKAGADVNAQDIFGKTPADIAADAGHEDIAEVLQKAAGSPTPTPTTPTPTPTTPTPTPTGSDLGEKLLVAALYGQDDEVRILLAAGADVNAKDQWGLTPLHKAALQGHLEIVEVLLKAGADVNAKDERGHTPLHWAARFGHLEIVEVLLKAGADVNAQDQKGYTPADLAALWGHEDIAEVLQKAA
notes: Fusion of a serum albumin-specific and a FAP-specific ankyrin repeat domain
EC50 (read off the curve) [1]: ~2 nM
EC50 (read off the curve) [2]: ~2 nM
